Assay results taken from patent publication US20230074735.

Target: Taq DNA polymerase (Thermus aquaticus) (UniProt P19821)
Assay: inhibition
Settings: contains RNA cleavage site; about half amplicon yield; activity increased to some degree with 10 uM Pb2+; mechanism unclear, possibly stem recognition by polymerase

Sequence of Taq DNA polymerase (Thermus aquaticus) (P19821 whole entry): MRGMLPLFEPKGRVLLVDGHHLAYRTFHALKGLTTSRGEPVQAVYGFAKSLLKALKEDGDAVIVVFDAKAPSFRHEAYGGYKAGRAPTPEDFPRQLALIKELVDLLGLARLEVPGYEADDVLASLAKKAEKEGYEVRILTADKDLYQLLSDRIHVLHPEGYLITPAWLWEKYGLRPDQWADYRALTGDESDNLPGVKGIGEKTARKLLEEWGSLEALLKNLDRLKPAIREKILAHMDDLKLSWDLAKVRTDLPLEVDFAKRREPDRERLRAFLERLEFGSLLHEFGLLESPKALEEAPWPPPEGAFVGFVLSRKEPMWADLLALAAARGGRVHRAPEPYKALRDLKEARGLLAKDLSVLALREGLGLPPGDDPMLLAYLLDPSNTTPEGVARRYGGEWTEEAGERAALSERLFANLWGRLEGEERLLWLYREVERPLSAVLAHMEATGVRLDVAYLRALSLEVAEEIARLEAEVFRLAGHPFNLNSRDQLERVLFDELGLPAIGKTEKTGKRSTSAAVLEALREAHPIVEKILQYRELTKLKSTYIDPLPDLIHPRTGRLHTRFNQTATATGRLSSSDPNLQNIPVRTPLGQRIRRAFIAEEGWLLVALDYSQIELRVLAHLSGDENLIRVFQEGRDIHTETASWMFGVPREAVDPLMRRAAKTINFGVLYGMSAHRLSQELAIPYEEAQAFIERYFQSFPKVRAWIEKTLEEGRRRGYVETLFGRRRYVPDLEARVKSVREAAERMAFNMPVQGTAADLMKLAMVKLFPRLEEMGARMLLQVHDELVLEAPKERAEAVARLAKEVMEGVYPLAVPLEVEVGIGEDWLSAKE

GR5 DNAzyme (71 nt)
activity (% amplicon vs polymerase only): 50
